This note sets out measurements from patent US20220306753A1 (JN BIOSCIENCES, published 2022).

The target of experiment [1] is T1, Human B7-1/CD80 Protein, Mouse IgG2a Tag (human, UniProt P33681 35-242).
T1 construct: Bought protein coated on the ELISA plate; also called Cat. No. B71-H52A4, Acro Biosystems; not shown: mouse IgG2a tag of the bought protein
T1 sequence (looked up): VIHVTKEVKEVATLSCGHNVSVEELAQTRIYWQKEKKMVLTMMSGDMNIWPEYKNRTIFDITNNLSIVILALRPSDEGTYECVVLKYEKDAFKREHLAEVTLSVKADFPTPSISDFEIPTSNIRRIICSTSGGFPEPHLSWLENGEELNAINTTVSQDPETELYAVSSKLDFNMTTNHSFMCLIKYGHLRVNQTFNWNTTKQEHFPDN
Nature of the experiment: ELISA, plate coated with 1 µg/ml CD80 mouse IgG2a tag protein, anti-human kappa-HRP detection. The method, then:
(§1) Binding of HuABC2-CTLA4 and HuABC2-CTLA4YE to human CD122, CD80 and CD86 was analyzed by ELISA. Wells of an ELISA plate were coated with 1 μg/ml of either CD122 (Human IL-2R beta/CD122 Protein, Fc Tag; Cat. No. ILB-H5253, Acro Biosystems, Newark, Del.), CD80 (Human B7-1/CD80 Protein, Mouse IgG2a Tag; Cat. No. B71-H52A4, Acro Biosystems) or CD86 (Human B7-2/CD86 Protein, Fc Tag; Cat. No. CD6-H5257, Acro Biosystems) in PBS. After blocking with Blocking Buffer and washing the wells with Wash Buffer, transiently expressed HuABC2-CTLA4 and HuABC2-CTLA4YE at 0.5 μg/ml and serial 2-fold dilutions in ELISA Buffer were applied to the wells in duplicates. Purified HuABC2 at 0.5 μg/mland serial 2-fold dilutions was used as a control. After incubation for 1 hr at room temperature and washing with Wash Buffer, bound antibodies were detected using HRP-conjugated goat anti-human kappa chain polyclonal antibody. After incubation for 30 min and washing with Wash Buffer, color development was initiated by adding ABTS substrate and stopped with 2% oxalic acid. Absorbance was read at 405 nm.
In general terms: In an ELISA, binding on a coated surface is turned into a signal by an enzyme label.

In experiment [2] the target is T2, Human B7-2/CD86 Protein, Fc Tag (human, UniProt P42081 24-247).
T2 construct: Bought protein coated on the ELISA plate; also called Cat. No. CD6-H5257, Acro Biosystems; not shown: Fc tag of the bought protein
T2 sequence (looked up): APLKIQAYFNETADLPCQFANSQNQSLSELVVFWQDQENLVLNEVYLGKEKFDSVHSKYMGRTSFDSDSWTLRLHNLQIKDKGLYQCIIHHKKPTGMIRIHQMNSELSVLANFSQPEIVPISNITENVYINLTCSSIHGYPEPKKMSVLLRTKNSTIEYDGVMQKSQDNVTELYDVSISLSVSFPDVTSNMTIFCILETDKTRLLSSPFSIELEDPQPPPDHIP
Nature of the experiment: ELISA, plate coated with 1 µg/ml CD86 Fc tag protein, anti-human kappa-HRP detection. The method, then:
as §1

Experiment [3] has as its target T3, Human IL-2R beta/CD122 Protein, Fc Tag (human, UniProt P14784 27-239).
T3 construct: Bought protein coated on the ELISA plate; also called Cat. No. ILB-H5253, Acro Biosystems; not shown: Fc tag of the bought protein
T3 sequence (looked up): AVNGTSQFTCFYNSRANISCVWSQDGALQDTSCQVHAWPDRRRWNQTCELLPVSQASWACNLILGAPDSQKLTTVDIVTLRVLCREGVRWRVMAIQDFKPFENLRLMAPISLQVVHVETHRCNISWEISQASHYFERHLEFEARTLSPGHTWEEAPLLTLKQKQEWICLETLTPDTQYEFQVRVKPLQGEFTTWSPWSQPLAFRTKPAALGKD
As to the kind of experiment: ELISA, plate coated with 1 µg/ml CD122 Fc tag protein, binder from 0.5 µg/ml in 2-fold dilutions, anti-human kappa-HRP. On the procedure: as §1

B1: HuABC2 (antibody, human IgG1, kappa, V domains shown)
VH: EVQLVESGGGLVQPGGSLRLSCAASGFTFSDFYMEWVRQAPGKGLEWIAASRNKANDYTTEYSASVKGRFIVSRDDSKNSLYLQMNSLKTEDTAVYYCARSYYRYDGMDYWGQGTTVTVSS
VL: EIVLTQSPATLSLSPGERATLSCSAISSVSYMYWYQQKPGQAPRLLIYDTSNLVSGVPARFSGSGSGTDYTLTISSLEPEDFAVYYCQQWNTYPYTFGGGTKVEIKR
notes: Human IgG1/kappa, wild-type Fc, expressed from pHuABC2p in CHO-K1 and purified on protein A; also called humanized anti-CD122 IgG1/kappa monoclonal antibody
On to B1, for which the binding result was “no binding (tested: 0.5 µg/ml and serial 2-fold dilutions)” in experiment [1]; “no binding (tested: 0.5 µg/ml and serial 2-fold dilutions)” in experiment [2]; “binds” in experiment [3].
